From patent US20170253633A1 (IMMATICS BIOTECHNOLOGIES, published 2017)

B1: TLFPSKIGV (peptide)
peptide: TLFPSKIGV
notes: genes: MOB1A, MOB1B
B2: ILLDTPLFL (peptide)
peptide: ILLDTPLFL
notes: gene: SERHL2
B3: YLDPNQRDL (peptide)
peptide: YLDPNQRDL
notes: gene: ZNF573
B4: RLIDDMVAQA (peptide)
peptide: RLIDDMVAQA
notes: gene: IDH1
B5: VLFNIDGQGNHV (peptide)
peptide: VLFNIDGQGNHV
notes: gene: GATA3
B6: LLDVTPKAV (peptide)
peptide: LLDVTPKAV
notes: gene: TJP2
B7: YLDPSLNSL (peptide)
peptide: YLDPSLNSL
notes: gene: CXorf57
B8: IITKDLFQV (peptide)
peptide: IITKDLFQV
notes: gene: DYNC1H1
B9: SLLDFERSL (peptide)
peptide: SLLDFERSL
notes: gene: HPS3
B10: QLAWFDTDL (peptide)
peptide: QLAWFDTDL
notes: gene: CTNNB1
B11: YMLDIFHEVL (peptide)
peptide: YMLDIFHEVL
notes: gene: HAS3
B12: RLLDFPTLLV (peptide)
peptide: RLLDFPTLLV
notes: gene: MAP10
B13: SLDEKQNLV (peptide)
peptide: SLDEKQNLV
notes: gene: METTL8
B14: IIIPEIQKV (peptide)
peptide: IIIPEIQKV
notes: gene: CSE1L
B15: QLQGYLRSV (peptide)
peptide: QLQGYLRSV
notes: gene: RPL6
B16: QIDGTLSTI (peptide)
peptide: QIDGTLSTI
notes: genes: FBXO34, CHMP4C, CHMP4B, CHMP4BP1
B17: KLNATNIEL (peptide)
peptide: KLNATNIEL
notes: gene: PSMA5
B18: YLEPKLTQV (peptide)
peptide: YLEPKLTQV
notes: gene: PSME4
B19: IVAPGTFEV (peptide)
peptide: IVAPGTFEV
notes: gene: ILF2
B20: FLLPLIIVL (peptide)
peptide: FLLPLIIVL
notes: gene: MR1
B21: FLEEKEQAAL (peptide)
peptide: FLEEKEQAAL
notes: genes: TRIM16, CDRT1, TRIM16L
B22: GLSEPIFQL (peptide)
peptide: GLSEPIFQL
notes: gene: MFN1
B23: YLTNEGIQYL (peptide)
peptide: YLTNEGIQYL
notes: genes: RPS10-NUDT3, RPS10
B24: LLYPTEITV (peptide)
peptide: LLYPTEITV
notes: gene: ITGA3
B25: FLGENISNFL (peptide)
peptide: FLGENISNFL
notes: gene: APOL1
B26: TLVTGLASV (peptide)
peptide: TLVTGLASV
notes: gene: MFN1
B27: YLAGEAPTL (peptide)
peptide: YLAGEAPTL
notes: gene: VARS
B28: ALYPGQLVQL (peptide)
peptide: ALYPGQLVQL
notes: gene: ARHGAP9
B29: GLAGPVRGV (peptide)
peptide: GLAGPVRGV
notes: genes: SNURF, SNRPB, SNRPN
B30: QMLELITRL (peptide)
peptide: QMLELITRL
notes: gene: DICER1
B31: YLAPENGYLMEA (peptide)
peptide: YLAPENGYLMEA
notes: gene: SNRNP70
B32: ILGPQGNTI (peptide)
peptide: ILGPQGNTI
notes: gene: KHDRBS1
B33: RLSQLEGVNV (peptide)
peptide: RLSQLEGVNV
notes: gene as printed: VP535
B34: SLATTLTKI (peptide)
peptide: SLATTLTKI
notes: gene: COPB1
B35: GLLKAYSIRTA (peptide)
peptide: GLLKAYSIRTA
notes: gene: KRT7
B36: TLIEDDALNGA (peptide)
peptide: TLIEDDALNGA
notes: gene: HPGD
B37: SLDSSGFSL (peptide)
peptide: SLDSSGFSL
notes: gene: PARP4
B38: STTNGGILTV (peptide)
peptide: STTNGGILTV
notes: gene: FYTTD1
B39: ALSSPPPTV (peptide)
peptide: ALSSPPPTV
notes: gene: ZFYVE9
B40: ILDISRSEV (peptide)
peptide: ILDISRSEV
notes: gene: GPR107
B41: YQAPDIDVQL (peptide)
peptide: YQAPDIDVQL
notes: gene: GLTSCR2
B42: VLFGEITRL (peptide)
peptide: VLFGEITRL
notes: gene: NDUFS2
B43: ALLDEQQVNV (peptide)
peptide: ALLDEQQVNV
notes: gene: ID1
B44: KLPEPPPLA (peptide)
peptide: KLPEPPPLA
notes: gene: ERV3-1
B45: ALWDEFNQL (peptide)
peptide: ALWDEFNQL
notes: gene: TBX1
B46: ILSAILVHL (peptide)
peptide: ILSAILVHL
notes: gene: MROH2A
B47: TLTSIIVAV (peptide)
peptide: TLTSIIVAV
notes: gene: MROH2A
B48: AMASHLTST (peptide)
peptide: AMASHLTST
notes: gene: RBM4
B49: VIADRVVTV (peptide)
peptide: VIADRVVTV
notes: gene: VWA5B1
B50: FLIDASQRV (peptide)
peptide: FLIDASQRV
notes: gene: COL6A5
B51: GLAQDPKSLQL (peptide)
peptide: GLAQDPKSLQL
notes: gene: TTC28
B52: VLMDDTDPL (peptide)
peptide: VLMDDTDPL
notes: gene: PSMC1
B53: VLMDDTDPLV (peptide)
peptide: VLMDDTDPLV
notes: gene: PSMC1
B54: SLIGGTNFV (peptide)
peptide: SLIGGTNFV
notes: gene: AP1B1
B55: VLANRVAVV (peptide)
peptide: VLANRVAVV
notes: gene: DHRS2
B56: SLATLEGIQL (peptide)
peptide: SLATLEGIQL
notes: gene: ZNF236
B57: ILVQVIPVV (peptide)
peptide: ILVQVIPVV
notes: gene: IRF6
B58: ALNDEINFL (peptide)
peptide: ALNDEINFL
notes: gene: KRT7
B59: ILLRDLPTL (peptide)
peptide: ILLRDLPTL
notes: gene: FAM174B
B60: GLDSSVNVQGSVL (peptide)
peptide: GLDSSVNVQGSVL
notes: gene: WTAP
B61: GQLDFSEFL (peptide)
peptide: GQLDFSEFL
notes: gene: S100A11
B62: LLAGLLVGV (peptide)
peptide: LLAGLLVGV
notes: gene: C1orf159
B63: SIVDFLITA (peptide)
peptide: SIVDFLITA
notes: gene: PPP1R13L
B64: GLLSQGSPL (peptide)
peptide: GLLSQGSPL
notes: gene: GCLC
B65: SLWEENQAL (peptide)
peptide: SLWEENQAL
notes: gene: LAMA5
B66: TMIVSLAAV (peptide)
peptide: TMIVSLAAV
notes: gene: ARL6IP1
B67: QIWDKILSV (peptide)
peptide: QIWDKILSV
notes: gene: DHRS2

Biological target: T1, HLA-A*02:01 (human)
T1 construct: MHC monomer first loaded with a UV-sensitive peptide, which is cleaved by UV and exchanged with the test peptide; captured on streptavidin plates; also called peptide-receptive MHC molecules
Assay: UV-ligand exchange + anti-b2m ELISA; +++ = peptide exchange yield >50
Source text: Candidate peptides for T cell based therapies according to the present invention were further tested for their MHC binding capacity (affinity). The individual peptide-MHC complexes were produced by UV-ligand exchange, where a UV-sensitive peptide is cleaved upon UV-irradiation, and exchanged with the peptide of interest as analyzed. Only peptide candidates that can effectively bind and stabilize the peptide-receptive MHC molecules prevent dissociation of the MHC complexes. To determine the yield of the exchange reaction, an ELISA was performed based on the detection of the light chain (β2m) of stabilized MHC complexes. The assay was performed as generally described in Rodenko et al. (Rodenko et al., 2006).
96 well MAXISorp plates (NUNC) were coated over night with 2 ug/ml streptavidin in PBS at room temperature, washed 4× and blocked forth at 37° C. in 2% BSA containing blocking buffer. Refolded HLA-A*02:01/MLA-001 monomers served as standards, covering the range of 15-500 ng/ml. Peptide-MHC monomers of the UV-exchange reaction were diluted 100 fold in blocking buffer. Samples were incubated for 1 h at 37° C., washed four times, incubated with 2 ug/ml HRP conjugated anti-β2m for 1 h at 37° C., washed again and detected with TMB solution that is stopped with […]. Absorption was measured at 450 nm. Candidate peptides that show a high exchange yield (preferably higher than 50%, most preferred higher than 75%) are generally preferred for a generation and production of antibodies or fragments thereof, and/or T cell receptors or fragments thereof, as they show sufficient avidity to the MHC molecules and prevent dissociation of the MHC complexes.

Binder | peptide exchange yield
B1 | 50 to 75%
B2 | 50 to 75%
B3 | 50 to 75%
B4 | 50 to 75%
B5 | 50 to 75%
B6 | 50 to 75%
B7 | 50 to 75%
B8 | 50 to 75%
B9 | 50 to 75%
B10 | 50 to 75%
B11 | 50 to 75%
B12 | 50 to 75%
B13 | 50 to 75%
B14 | 50 to 75%
B15 | 50 to 75%
B16 | 50 to 75%
B17 | 50 to 75%
B18 | 50 to 75%
B19 | 50 to 75%
B20 | 50 to 75%
B21 | 50 to 75%
B22 | 50 to 75%
B23 | 50 to 75%

Binder | peptide exchange yield
B24 | 50 to 75%
B25 | 50 to 75%
B26 | 50 to 75%
B27 | 50 to 75%
B28 | 50 to 75%
B29 | 50 to 75%
B30 | 50 to 75%
B31 | 50 to 75%
B32 | 50 to 75%
B33 | 50 to 75%
B34 | 50 to 75%
B35 | 50 to 75%
B36 | 50 to 75%
B37 | 50 to 75%
B38 | 50 to 75%
B39 | 50 to 75%
B40 | 50 to 75%
B41 | 50 to 75%
B42 | 50 to 75%
B43 | 50 to 75%
B44 | 50 to 75%
B45 | 50 to 75%
B46 | 50 to 75%

Binder | peptide exchange yield
B47 | 50 to 75%
B48 | 50 to 75%
B49 | 50 to 75%
B50 | 50 to 75%
B51 | 50 to 75%
B52 | 50 to 75%
B53 | 50 to 75%
B54 | 50 to 75%
B55 | 50 to 75%
B56 | 50 to 75%
B57 | 50 to 75%
B58 | 50 to 75%
B59 | 50 to 75%
B60 | 50 to 75%
B61 | 50 to 75%
B62 | 50 to 75%
B63 | 50 to 75%
B64 | 50 to 75%
B65 | 50 to 75%
B66 | 50 to 75%
B67 | 50 to 75%
